Publication PMC6608618, “Structures of three ependymin-related proteins suggest their function as a hydrophobic molecule binder” (IUCrJ, 2019)

Experiments:
human EPDR1 = target: T1, human EPDR1 (Homo sapiens, UniProt Q9UM22); experiment: fluorescence increase titration (ex […] nm, em […] nm); assay type: binding
T1 construct: residues 38-224 without native signal peptide; N-terminal His8 tag, cleavage not mentioned; codon-optimised synthetic gene, pAcGP67A; secreted from Sf9 insect cells; homodimer in crystal; three intramolecular disulfides
T1 sequence (Q9UM22 38-224): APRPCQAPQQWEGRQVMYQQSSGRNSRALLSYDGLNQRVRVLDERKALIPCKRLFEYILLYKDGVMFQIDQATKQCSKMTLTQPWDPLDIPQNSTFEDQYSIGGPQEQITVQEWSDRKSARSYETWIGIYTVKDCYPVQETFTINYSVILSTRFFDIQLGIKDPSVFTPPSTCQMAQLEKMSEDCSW

[1] = target: the molecule itself; experiment: crystal structure; frog EPDR1 crystals, hanging drop 22 C, 15-20% PEG 8000, 0.2 M calcium acetate, 0.1 M sodium cacodylate pH 6.5; space group P6(5)22, one molecule in the asymmetric unit, dimer with a crystallographic symmetry mate
[2] = target: the molecule itself; experiment: crystal structure; mouse EPDR1 crystals, hanging drop 22 C, 0.5-1.0 M lithium sulfate, 0.5-1.0 M ammonium sulfate, 0.1 M sodium citrate pH 5.6; space group P2(1), four molecules in the asymmetric unit
[3] = target: the molecule itself; experiment: crystal structure; human EPDR1 crystals, hanging drop 22 C, 15-20% PEG 3350 with 0.1 M citric acid pH 4.5 or 0.2 M NaCl, 0.1 M bis-Tris pH 5.5; space group P4(3), four molecules in the asymmetric unit; interfaces judged by PISA

For `O=S(=O)(O)c1cccc2cccc(Nc3ccccc3)c12` [1,8-ANS, 1-anilinonaphthalene-8-sulfonic acid], the Kd (human EPDR1) was ~14 µM.

B1: frog EPDR1 (Xenopus tropicalis, residues 38-220, N-terminal His8 tag) (natural protein, UniProt F6VRB7 38-220, looked up)
chain: TPCEAPLQWEGRIVLYDHNTGKNTRATVTYDAILQRIRILEEKKSFVPCKRFFEYIFLYQEAVMFQIEQVTKICSKNTLTEPWDPYDIPENSTYEDQYYIGGPGDQIPVQEWSDRKPARKYETWVGVYTVKDCYPVQETYTKNDSMTTSTRFFDIKLGISDPSVFNPPSTCEAAQPLLMSGDC
modifications: glycosylation at the two predicted Asn sites only slightly perceivable, too disordered to be modeled
notes: frog (Xenopus tropicalis) EPDR1, NCBI XP_002939463, residues 38-220, without the native N-terminal signal peptide; Three intramolecular disulfide bonds; source: Sf9 insect cells (baculovirus, pAcGP67A, secreted), purified (Ni-NTA, size-exclusion chromatography)
For B1, the “stoichiometry N” value [1] was 2.

B2: mouse EPDR1 (residues 38-224, N-terminal His8 tag) (natural protein, UniProt Q99M71 38-224, looked up)
chain: TPQPCQAPQQWEGRQVLYQQSSGHNNRALVSYDGLNQRVRVLDERKALIPCKRLFEYILLYKEGVMFQIEQATKQCAKIPLVESWDPLDIPQNSTFEDQYSIGGPQEQILVQEWSDRRTARSYETWIGVYTAKDCYPVQETFIRNYTVVMSTRFFDVQLGIKDPSVFTPPSTCQAAQPEKMSDGCSL
modifications: N-glycosylation at Asn130 (one NAG) and at Asn182 (two NAGs and one fucose)
notes: mouse (Mus musculus) EPDR1, UniProt Q99M71, residues 38-224, without the native N-terminal signal peptide; Three intramolecular disulfide bonds; also called MERP1; source: Sf9 insect cells (baculovirus, pAcGP67A, secreted), purified (Ni-NTA, size-exclusion chromatography)
With B2 the “stoichiometry N” value [2] was 2.

B3: human EPDR1 (residues 38-224, N-terminal His8 tag) (natural protein, UniProt Q9UM22 38-224, looked up)
chain: T1 sequence (Q9UM22 38-224)
modifications: glycosylation at the two predicted Asn sites only slightly perceivable, too disordered to be modeled
notes: human EPDR1, UniProt Q9UM22, residues 38-224, without the native N-terminal signal peptide; Three intramolecular disulfide bonds (Cys42-Cys172, Cys88-Cys222, Cys113-Cys210); also called mammalian ependymin-related protein 1; MERP1; source: Sf9 insect cells (baculovirus, pAcGP67A, secreted), purified (Ni-NTA, size-exclusion chromatography)
For B3, the “stoichiometry N” value [3] was 2.
